For assay [1], the target named is T1, recombinant human Nectin-1 (human, UniProt Q15223 31-334, limits assumed).
T1 construct: Recombinant protein; construct not described
T1 sequence (looked up): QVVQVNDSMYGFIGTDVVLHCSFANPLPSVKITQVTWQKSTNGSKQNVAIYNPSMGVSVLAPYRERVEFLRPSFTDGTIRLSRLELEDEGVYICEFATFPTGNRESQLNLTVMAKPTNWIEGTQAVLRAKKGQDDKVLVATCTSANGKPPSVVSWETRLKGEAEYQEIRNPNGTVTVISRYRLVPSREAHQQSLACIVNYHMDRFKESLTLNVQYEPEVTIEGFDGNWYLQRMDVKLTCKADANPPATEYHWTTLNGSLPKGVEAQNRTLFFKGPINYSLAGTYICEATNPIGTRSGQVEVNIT
Put plainly: ELISA. A general note: ELISA stands for enzyme-linked immunosorbent assay.

In assay [2] the target is T2, recombinant human Nectin-2 (human, UniProt Q92692 32-360, limits assumed).
T2 construct: Recombinant protein; construct not described
T2 sequence (looked up): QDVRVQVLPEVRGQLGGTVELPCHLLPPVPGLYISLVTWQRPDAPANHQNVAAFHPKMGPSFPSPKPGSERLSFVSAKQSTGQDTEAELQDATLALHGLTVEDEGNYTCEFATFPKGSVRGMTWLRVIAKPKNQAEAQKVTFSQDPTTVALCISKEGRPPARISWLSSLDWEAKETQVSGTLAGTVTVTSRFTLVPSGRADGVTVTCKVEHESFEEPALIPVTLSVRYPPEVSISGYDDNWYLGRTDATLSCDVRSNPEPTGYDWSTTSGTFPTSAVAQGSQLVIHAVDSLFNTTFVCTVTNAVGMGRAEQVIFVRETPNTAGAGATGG
Put plainly: ELISA.

In assay [3] the target is T3, recombinant human Nectin-3 (human, UniProt Q9NQS3 58-404, limits assumed).
T3 construct: Recombinant protein; construct not described
T3 sequence (Q9NQS3 58-404 limits assumed): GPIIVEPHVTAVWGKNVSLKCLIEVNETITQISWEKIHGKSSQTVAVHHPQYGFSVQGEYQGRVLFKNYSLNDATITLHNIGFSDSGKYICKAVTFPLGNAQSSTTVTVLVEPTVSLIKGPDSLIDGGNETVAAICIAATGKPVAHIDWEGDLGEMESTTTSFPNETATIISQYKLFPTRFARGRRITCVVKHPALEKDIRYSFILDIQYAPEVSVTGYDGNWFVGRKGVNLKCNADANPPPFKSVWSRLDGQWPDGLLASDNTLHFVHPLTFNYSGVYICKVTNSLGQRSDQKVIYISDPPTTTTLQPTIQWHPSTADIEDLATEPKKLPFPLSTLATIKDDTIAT
Put plainly: ELISA.

The target of assay [4] is T4, recombinant human Nectin-4 protein (human, UniProt Q96NY8 32-349).
T4 construct: Recombinant protein; construct not described
T4 sequence (looked up): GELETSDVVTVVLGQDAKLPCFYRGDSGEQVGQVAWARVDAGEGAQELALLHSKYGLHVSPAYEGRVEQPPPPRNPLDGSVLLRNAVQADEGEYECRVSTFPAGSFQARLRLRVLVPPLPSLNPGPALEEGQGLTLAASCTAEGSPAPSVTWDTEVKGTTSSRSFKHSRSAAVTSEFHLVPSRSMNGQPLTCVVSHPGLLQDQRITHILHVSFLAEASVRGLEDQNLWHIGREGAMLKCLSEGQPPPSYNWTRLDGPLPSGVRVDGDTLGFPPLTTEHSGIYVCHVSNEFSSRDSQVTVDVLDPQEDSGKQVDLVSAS
Put plainly: ELISA on recombinant protein.

Assay [5] has as its target T5, recombinant rat Nectin-4 protein (rat, UniProt D3ZET1 31-348).
T5 construct: Recombinant protein; construct not described
T5 sequence: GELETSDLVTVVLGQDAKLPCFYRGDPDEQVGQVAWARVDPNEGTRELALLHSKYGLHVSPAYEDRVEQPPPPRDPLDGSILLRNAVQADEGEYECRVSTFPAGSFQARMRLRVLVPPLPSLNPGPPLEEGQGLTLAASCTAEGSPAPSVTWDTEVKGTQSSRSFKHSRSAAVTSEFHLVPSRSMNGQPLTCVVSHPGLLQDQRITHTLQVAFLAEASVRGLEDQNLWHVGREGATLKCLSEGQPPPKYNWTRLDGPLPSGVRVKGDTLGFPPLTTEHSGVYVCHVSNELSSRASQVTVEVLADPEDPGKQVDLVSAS
Put plainly: ELISA on recombinant protein.

Assay [6] deals with T6, recombinant cynomolgus monkey Nectin-4 protein (cynomolgus monkey, UniProt A0A2K5WES1 32-349).
T6 construct: Recombinant protein; construct not described; also called cynomolgus Nectin-4
T6 sequence: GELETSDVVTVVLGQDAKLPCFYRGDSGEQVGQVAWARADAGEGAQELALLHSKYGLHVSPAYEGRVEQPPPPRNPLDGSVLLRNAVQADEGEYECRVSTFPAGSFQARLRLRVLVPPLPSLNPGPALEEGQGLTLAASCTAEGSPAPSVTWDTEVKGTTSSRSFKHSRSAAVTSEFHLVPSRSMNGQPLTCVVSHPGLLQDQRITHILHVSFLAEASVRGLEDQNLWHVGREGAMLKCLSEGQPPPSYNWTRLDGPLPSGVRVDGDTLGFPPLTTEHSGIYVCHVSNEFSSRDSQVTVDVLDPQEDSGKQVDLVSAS
Put plainly: ELISA on recombinant protein.

Assay [7] concerns the target T4, recombinant human Nectin-4 protein. Briefly: BLI, antibody as loading sample. In general terms: Biolayer interferometry detects binding as a change in optical thickness at a sensor tip.
For assay [8], the target named is T5, recombinant rat Nectin-4 protein. Put plainly: BLI, antibody as loading sample.
For assay [9], the target named is T6, recombinant cynomolgus monkey Nectin-4 …. Briefly: BLI, antibody as loading sample.

B1: Enfortumab-PBX-7016 ADC (antibody, V domains shown)
VH: EVQLVESGGGLVQPGGSLRLSCAASGFTFSSYNMNWVRQAPGKGLEWVSYISSSSSTIYYADSVKGRFTISRDNAKNSLSLQMNSLRDEDTAVYYCARAYYYGMDVWGQGTTVTVSS
VL: DIQMTQSPSSVSASVGDRVTITCRASQGISGWLAWYQQKPGKAPKFLIYAASTLQSGVPSRFSGSGSGTDFTLTISSLQPEDFATYYCQQANSFPPTFGGGTKVEIKR
modifications: mc-GGFG-PBX-7016 linker-payload on cysteine thiols freed by TCEP reduction of the disulfides; positions not given
For the molecule B1, the binding result in assay [1], in assay [2] and in assay [3] was “no binding” throughout. The EC50 (as a rule, the concentration giving half of the maximal effect) in [4] amounted to 8.31 ng/mL; in [5], 9.88 ng/mL; in assay [6] it was 7.94 ng/mL. In addition, the equilibrium dissociation constant (Kd) (commonly the constant that tells how readily two partners part at equilibrium) amounted to 2.89 nM in assay [7], 3.2 nM in assay [8] and 1.78 nM in assay [9]. The figures for the Response in assay [7], in assay [8] and in assay [9] were 0.621, 0.511 and 0.643, respectively.

B2: Enfortumab mAb (antibody, human IgG1, kappa, V domains shown)
VH: EVQLVESGGGLVQPGGSLRLSCAASGFTFSSYNMNWVRQAPGKGLEWVSYISSSSSTIYYADSVKGRFTISRDNAKNSLSLQMNSLRDEDTAVYYCARAYYYGMDVWGQGTTVTVSS
VL: DIQMTQSPSSVSASVGDRVTITCRASQGISGWLAWYQQKPGKAPKFLIYAASTLQSGVPSRFSGSGSGTDFTLTISSLQPEDFATYYCQQANSFPPTFGGGTKVEIKR
notes: Naked antibody (source: Abinvivo); also called anti-Nectin-4 antibody (Enfortumab); anti-Nectin4 mAb
For the molecule B2, the binding result in [1], in assay [2] and in assay [3] was “no binding” in each case. The EC50 in [4] was 8.38 ng/mL; in [5] it was 9.63 ng/mL; in assay [6], 8.43 ng/mL. For the same molecule, the results for the Kd in [7], in [8] and in assay [9] were 5.02 nM, 3.96 nM and 6.05 nM, respectively. Moreover, the Response in assay [7] is 0.681; in [8], 0.606; in assay [9], 0.67. For the same molecule, the koff (as a rule, the first-order rate constant of dissociation) in assay [7] is 0.00136 s⁻¹; in [8], 0.00149 s⁻¹; in [9] it was 0.00191 s⁻¹. Besides, the results for the kon in [7], in [8] and in assay [9] were 271000 M⁻¹ s⁻¹, 376000 M⁻¹ s⁻¹ and 316000 M⁻¹ s⁻¹, respectively.
